Test results published in the supplement of paper PMC10201428.
± gives the standard deviation of the averaged measurements.

Experiments:
[1] = tested on: VchCAST RNA-guided transposition machinery (E. coli BL21(DE3) host, lacZ target); experiment: relative integration efficiency (T-LR orientation) vs wild-type transposon end (log2 (normalized fold change)); transposon end mutated: right end (5 bp flank + 75 bp right end); higher = more efficient transposition
Method: (§1)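 Pooled, barcoded VchCAST (Tn6677) mini-transposon donor libraries; each variable transposon-end sequence sits in a fixed pDonor mini-transposon context (10-bp barcode and cargo not included). Left- or right-end libraries were co-transformed with pEffector (TniQ-Cascade, TnsABC, lacZ crRNA, T7, 0.1 mM IPTG) into E. coli BL21(DE3) and grown 18 h at 37 C. T-LR and T-RL junction amplicons were sequenced; output/input barcode fold change was normalised to the mean of four wild-type barcodes and log2-transformed. Two biological replicates; zero-count/undetected variants carry floor values (-10 / -15), censored here. Barcode uncoupling by PCR recombination adds noise.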

[2] = tested on: VchCAST RNA-guided transposition machinery (E. coli BL21(DE3) host, lacZ target); experiment: relative integration efficiency (T-RL orientation) vs wild-type transposon end (log2 (normalized fold change)); transposon end mutated: right end (5 bp flank + 75 bp right end); higher = more efficient transposition
Method: as §1

| Sequence | relative integration efficiency (log2) [1] | relative integration efficiency (log2) [2] |
| --- | --- | --- |
| ACATTTGTTGATACAACCATAAAATTATAATTACACCCATAAATTTATAATTATCACACCCATAAATTTATATTGCCTCTGATCATAGTCAGACCAACATTGCTACGACCCGTATTCGCACCGACAC | 0.398 ± 0.67 | -1.23 ± 0.3 |
| ACATTTGTTGATACAACCATATATTGATATCTCCACCCATAAATTGATATTGCTCAGTGGGTATTTAACTATAACGCTCTGATCATAGTCAGACCAACATTGCTACGACCCGTATTCGCACCGACAC | 2.32 ± 0.041 | -1.2 ± 0.17 |
| ACATTTGTTGATACAACCATAAAATGATAATTAATAATTATTCACCCATAAATTGATAATTATCAACAAACGCCCGGTCGCGGTACTCTGATCATAGTCAGACCAACATTGCTACGACCCGTATTCG | 0.337 ± 0.11 | -2.63 ± 0.4 |
| ACATTTGTTGATACAACCATAAGTTGATATTTTCAACCATAAAATGATAATTATCACACCCATAAATTGATATTGCCTCTGATCATAGTCAGACCAACATTGCTACGACCCGTATTCGCACCGACAC | 0.105 ± 0.58 | 0.367 ± 0.094 |
| ACATTTGTTGATACAACCATAAAATGATAATTACACCCATAAATGGATTATTATCACACCCAATTTAACTATAACGCTCTGATCATAGTCAGACCAACATTGCTACGACCCGTATTCGCACCGACAC | 0.865 ± 0.44 | -1.59 ± 0.23 |
| ACATTTGTTGATACACCCATAAATTGATAATTACAACCATAAAGTGATATTTATCACACCCATAAATTGATAATTACTCTGATCATAGTCAGACCAACATTGCTACGACCCGTATTCGCACCGACAC | -0.96 ± 0.16 | -0.494 ± 0.16 |
| ACATTTCTGGATACAACCATAAAATGATAATTACACCCATAAATGGATAATTATCACACCCAATTTAACTATAACGCTCTGATCATAGTCAGACCAACATTGCTACGACCCGTATTCGCACCGACAC | -0.444 ± 0.28 | -2.35 ± 0.26 |
| ACATTTGTCGATACAACCCTAAAATGATAATTACACCCATAAATTGATCATTATCACCCCCAATTTAACTATAACGCTCTGATCATAGTCAGACCAACATTGCTACGACCCGTATTCGCACCGACAC | 0.684 ± 0.37 | -2.5 ± 0.47 |
| ACATTTGTTGATACAACCATAAGTTGATATTTTCAACCATAAAGTGATATTTATCACACCCATAAATTGATAATTACTCTGATCATAGTCAGACCAACATTGCTACGACCCGTATTCGCACCGACAC | -0.0467 ± 0.44 | -0.109 ± 0.07 |
| ACATTTGTTGATACAACCATAAAATGATAATTACACCCATAAATTGATAATTATCACACCCATAAATTGATATTGCCTCTTCATGGTCTAAACTTCAGTTTCAAATGCTGATTTTCAGCACCGACAC | 0.262 ± 0.23 | 0.164 ± 0.26 |
| ACATTTGTTGATACAACCATAAAACGATAATTACACCCATAAATGGATCATTATCACACCCAATTTAACTATAACGCTCTGATCATAGTCAGACCAACATTGCTACGACCCGTATTCGCACCGACAC | 1.06 ± 0.24 | -1.78 ± 0.29 |
| ACATTTGTTGATACAACCATAAAATGATAATTACACCCATAAATTGATAAGGCGCACACCCATAAATTGATATTGCCTCTGATCATAGTCAGACCAACATTGCTACGACCCGTATTCGCACCGACAC | -0.0146 ± 0.0051 | -0.436 ± 0.083 |
| ACATTTCTGGATACAACCATAAAATGATAATTACACCCATAAATGGATCATTATCACACCCAATTTAACTATAACGCTCTGATCATAGTCAGACCAACATTGCTACGACCCGTATTCGCACCGACAC | -0.629 ± 0.35 | -3.09 ± 0.37 |
| ACATTTGTTGATACAACCATAAAATGATCCTTACACCCATAAATTGATAATTATCACACCCATAAATTGATATTGCCTCTGATCATAGTCAGACCAACATTGCTACGACCCGTATTCGCACCGACAC | -0.545 ± 0.46 | -1.03 ± 0.14 |
| ACATTTGTGGATACAACCATAAAATGATAATTACACCCATAAATTTATAATTATCACACCCAATTTAACTATAACGCTCTGATCATAGTCAGACCAACATTGCTACGACCCGTATTCGCACCGACAC | 1.8 ± 0.36 | -1.09 ± 0.41 |
| ACATTTGTCGATCCAACCATAAAATGATAATTACACCCATAAATTCATCATTATCACACCCAATTTAACTATAACGCTCTGATCATAGTCAGACCAACATTGCTACGACCCGTATTCGCACCGACAC | 1.38 ± 0.015 | -2.47 ± 0.39 |
| ACATTTGTTCATACAACCATAAAACGATAATTACACCCATAAATTCATCATTATCACACCCAATTTAACTATAACGCTCTGATCATAGTCAGACCAACATTGCTACGACCCGTATTCGCACCGACAC | -0.684 ± 0.17 | -2.49 ± 0.11 |

| Sequence | relative integration efficiency (log2) [1] | relative integration efficiency (log2) [2] |
| --- | --- | --- |
| ACATTTGTTGATACAACCATAAAATGATAATTACTCTGACACCCATAAATTGATAATTATCACACCCATAAATTGATATTGCTCATAGTCAGACCAACATTGCTACGACCCGTATTCGCACCGACAC | 0.8247 ± 0.0022 | -2.73 ± 0.083 |
| ACATTTGTTGATACACCCATAAATTGATAATTACAACCATAAAGTGATATTTATCACAACCATAAAGTGATATTTACTCTGATCATAGTCAGACCAACATTGCTACGACCCGTATTCGCACCGACAC | -0.828 ± 0.015 | -0.483 ± 0.29 |
| ACATTTGTTGATACAACCATAAAATGATAATTCCACCCCTAAATTGATAATTATCACACCCAATTTAACTATAACGCTCTGATCATAGTCAGACCAACATTGCTACGACCCGTATTCGCACCGACAC | -0.0192 ± 0.33 | -3.1 ± 0.3 |
| ACATTTGTTGATACAACCATAAAATGATAATTACACCCATAAATTGATAATTATCACACCCATAAATTGATATTTAAGAGGATCATAGTCAGACCAACATTGCTACGACCCGTATTCGCACCGACAC | 0.08 ± 0.011 | 0.179 ± 0.034 |
| ACATTTGTTGATACAACCATAAAATGATAATTACACCCATAAATTGATAATTATCACCAAACGCCCGGTCGCGGTAAGAGGATCATAGTCAGACCAACATTGCTACGACCCGTATTCGCACCGACAC | 2.47 ± 0.095 | -0.505 ± 0.14 |
| ACATTTGTTGATACAACCATAAAATGATAATTACACCCATAAATTGATAATTATCCACACCATAAATTGATATTGCCTCTGATCATAGTCAGACCAACATTGCTACGACCCGTATTCGCACCGACAC | 0.485 ± 0.4 | -0.495 ± 0.13 |
| ACATTTGTTGATACAACCATAAAATGATAATTACACCCATAAATTGATAATTATCACACCCATAAATTGATATTCTCTGATCATAGTCAGACCAACATTGCTACGACCCGTATTCGCACCGACACTG | -0.29 ± 0.067 | -0.0876 ± 0.015 |
| ACATTTGTTGATACAACCCTAAAATGATAATTACACCCATAAATGGATAATTATCACCCCCAATTTAACTATAACGCTCTGATCATAGTCAGACCAACATTGCTACGACCCGTATTCGCACCGACAC | -0.791 ± 0.11 | -3.24 ± 0.23 |
| ACATTTGTTGATACAACCATAAAATGATAATTACACCCATAAATTGATAATTATCACACCCATAAATTGATATTGCCTCTGATCATAGTCAGACCAACATTTGTGAGCGGATAACAAGCACCGACAC | -0.684 ± 0.077 | -0.379 ± 0.087 |
| ACATTTGTTTATACAACCATAAAATGATAATTACACCCATAAATTTATTATTATCACACCCAATTTAACTATAACGCTCTGATCATAGTCAGACCAACATTGCTACGACCCGTATTCGCACCGACAC | -0.334 ± 0.058 | -2.66 ± 0.6 |
| ACATTTGTTGATACAACCATAAAATGATAATATCACCCATAAATTGATAATTATCACACCCATAAATTGATATTGCCTCTGATCATAGTCAGACCAACATTGCTACGACCCGTATTCGCACCGACAC | -0.505 ± 0.091 | -0.188 ± 0.066 |
| ACATTTGTCGATACAACCATAAAACGATAATTACACCCATAAATTCATAATTATCACACCCAATTTAACTATAACGCTCTGATCATAGTCAGACCAACATTGCTACGACCCGTATTCGCACCGACAC | 1.06 ± 0.15 | -2.45 ± 0.33 |
| ACATTTGTTGATACAACCATAAAATCATCATTACCCCCATCAATTGATAATTATCACACCCAATTTAACTATAACGCTCTGATCATAGTCAGACCAACATTGCTACGACCCGTATTCGCACCGACAC | -1.24 ± 0.5 | -5.41 ± 0.15 |
| ACATTTGTTGATACAACCATAAAATGATAATTACACCCATAAATTGATAATTATCACACCCATAAATTGATAGGTAAGAGGATCATAGTCAGACCAACATTGCTACGACCCGTATTCGCACCGACAC | 0.884 ± 0.061 | -0.281 ± 0.02 |
| ACATTTGTTGATACAACCATAAAATGATAATTACACCCATAAATTGATAATTATCACACAAATAAATTGATATTGCCTCTGATCATAGTCAGACCAACATTGCTACGACCCGTATTCGCACCGACAC | 2.06 ± 0.028 | -1.11 ± 0.18 |
| ACATTTGTTGATACAACCATAAAATGATAATTAATAATTATTTATAATCAGCAACTTACACCCATAAATTGATAATTATCAACAAACGCCCGGTCGCGGTACTCTGATCATAGTCAGACCAACATTG | -1.91 ± 0.28 | -4.47 ± 1 |
| ACATTTGTTGATACAACCATCAAATGATAATTCCACCCCTAAATTGATAATTATCACACCCAATTTAACTATAACGCTCTGATCATAGTCAGACCAACATTGCTACGACCCGTATTCGCACCGACAC | -1.01 ± 0.31 | -3.65 ± 0.074 |
